Reference: IntAct's records for PubMed 11731480

B1: Histone acetyltransferase SAS2 (Saccharomyces cerevisiae), P40963 (parent)
chain: MARSLSQSLTATTQKLKGKKNGGKGKNKPSAKIKKTQKEMLYGILNERNIRQIQFGLNKKFSTWYGSAVYFDPETKRLGCSETKGQLSSVSNSQYWLDTLFVCEYCFKYTDDQTRFVGHVASCPFQYRVPGKIKYKSPEYTIRRVKGSKYQLFCQCLCLFTKLYLDNKSMYFKVDHYEFYIVYETGSTKPMGFFSKDLVSYQQNNLACILIFPPYQRRGLGLLLIEFSYKLSQLEGVISGPEVPLSPFGLIGYLKYWSQILCWHLIEGDLAHYDKVTLEDLSIVTGMRVNDVILTLKHLNCIGENNQIYLQSLNSWLKLHGTKRNWFKLKDEYLLIDD
B2: Histone acetyltransferase SAS2 (Saccharomyces cerevisiae), P40963 (parent)
chain: B1 chain
partner: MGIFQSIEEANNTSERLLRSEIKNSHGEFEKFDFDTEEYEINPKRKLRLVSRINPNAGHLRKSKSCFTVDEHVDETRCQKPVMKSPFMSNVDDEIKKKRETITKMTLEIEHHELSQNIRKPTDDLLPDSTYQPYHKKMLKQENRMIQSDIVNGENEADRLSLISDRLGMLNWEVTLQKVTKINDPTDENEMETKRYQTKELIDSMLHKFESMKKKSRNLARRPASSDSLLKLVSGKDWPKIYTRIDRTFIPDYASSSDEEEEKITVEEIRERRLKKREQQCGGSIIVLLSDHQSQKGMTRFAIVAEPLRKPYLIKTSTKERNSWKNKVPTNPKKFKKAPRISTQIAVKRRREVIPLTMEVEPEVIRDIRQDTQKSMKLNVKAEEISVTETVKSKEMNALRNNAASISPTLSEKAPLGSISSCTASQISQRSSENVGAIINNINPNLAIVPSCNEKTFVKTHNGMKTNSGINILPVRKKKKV

Variants of: B1
Details: with caf1a_yeast RLF2, Q12495
Chain of caf1a_yeast RLF2, Q12495 (Q12495 whole entry): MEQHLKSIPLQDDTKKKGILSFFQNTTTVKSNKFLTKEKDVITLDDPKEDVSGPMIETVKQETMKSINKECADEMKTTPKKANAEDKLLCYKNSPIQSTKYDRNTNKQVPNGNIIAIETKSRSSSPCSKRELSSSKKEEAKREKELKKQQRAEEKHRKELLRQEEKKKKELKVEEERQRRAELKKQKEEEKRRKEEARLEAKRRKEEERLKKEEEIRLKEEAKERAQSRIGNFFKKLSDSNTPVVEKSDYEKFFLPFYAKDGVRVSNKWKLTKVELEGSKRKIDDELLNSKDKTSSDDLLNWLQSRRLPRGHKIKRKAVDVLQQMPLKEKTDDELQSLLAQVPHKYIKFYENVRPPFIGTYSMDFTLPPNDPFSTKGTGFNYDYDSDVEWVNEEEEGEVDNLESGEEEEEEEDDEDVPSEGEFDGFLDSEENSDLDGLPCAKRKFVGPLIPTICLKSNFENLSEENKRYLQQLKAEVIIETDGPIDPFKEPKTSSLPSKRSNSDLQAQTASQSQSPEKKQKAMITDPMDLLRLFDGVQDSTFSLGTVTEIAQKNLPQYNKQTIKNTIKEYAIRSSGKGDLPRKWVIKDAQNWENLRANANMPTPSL

Row | effect of a mutation on the interaction | Variant
1 | decreasing interaction | P213A;P214V
2 | decreasing interaction | C106L

Variants of: B2
Details: with sas4_yeast SAS4, Q04003

Row | effect of a mutation on the interaction | Variant
3 | decreasing interaction | C106L
4 | decreasing interaction | P213A;P214V
